The labels stand for the following.
B1: TPR t1 (parent)
chain: GACCAAUCUGCCCUCAGAGCUCGAGAACAUCUUCGGAUGCAGAGGAGGCAGGCUUCGGUGGCGCGAUAGCGCCAACGUCCUCAACCUCCAAUGCAUCCCACCACAUGAUGAUGCCUGAAGAGCCUUGGUUUUUUG

In this data set the parent is B1. Briefly: polymerase ribozyme fitness, log enrichment relative to wild type (log ratio); higher = more active; in vitro selection for triplet polymerase activity. The gist of the method: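 After PCR construction and transcription, each subunit's mutant library from a heterodimeric triplet polymerase ribozyme was annealed with a biotinylated primer, the partner subunit and triplets. Incubation was frozen, at −7 °C, and extended constructs were gel-excised, bound to streptavidin beads and amplified by RT-PCR, in one selection round done in triplicate. Fitness is the logarithm of a genotype's enrichment divided by that of the wild type, from inverse-variance-weighted replicate averages of Illumina-sequenced inputs and outputs. The base of the logarithm is 2, and genotypes needed ≥10 input reads and ≥1 read per output.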
With A2G G120A, the “polymerase ribozyme fitness (log ratio)” value was 0.359. In the case of A2G G19U G120U it was -2.98.

Consider A2U G51A C123A, for which the “polymerase ribozyme fitness (log ratio)” value was -4.9. The same measure for A2G C13G C86U C123A U133C: 0.0468; for A2U A46U G47C G71A U132C: -3.81; for A2U C13U G77C: -1.85.

A2G A27U C79G C104U: the “polymerase ribozyme fitness (log ratio)” value was -4.76. A2U C40A G128U: the “polymerase ribozyme fitness (log ratio)” value was -4.11. In the case of A2U G47A C72A A121G it was -0.127. In the case of A2C C88G C104A U112G it was -4.8; in that of A2U A37G G61A U87G, -2.89; in that of A2U A91C G120U, -3.98. In the case of A2G C12U it was -0.378. As to A2C G42U, the “polymerase ribozyme fitness (log ratio)” value is -3.31. The same measure for A2C A83U: -1.1. The same measure for A2C U59C C73A U131A: -2.5; for A2C A24G A29C G47U G120A: -5.73. Take A2U C62U G117U: the “polymerase ribozyme fitness (log ratio)” value is -5.02. In the case of A2C C40G C56G C72G C124U it was -4.17. The same measure for A2C G42C U96A C123U: -3.31. A2C A37U C56G G69A U78G G120U: the “polymerase ribozyme fitness (log ratio)” value is -5.2. In the case of A2U C40U C115A U133G it was -2.75; in that of A2C U59G, -1.54. Regarding A2C C72A G120U, the “polymerase ribozyme fitness (log ratio)” value is -1.37.

Take A2G C13U C53U: the “polymerase ribozyme fitness (log ratio)” value was -0.428.

As to A2C C62U G110A, the “polymerase ribozyme fitness (log ratio)” value is -3.07.

Regarding A2G U9C C13U A18U C56G A95G, the “polymerase ribozyme fitness (log ratio)” value is -1.78.

Turning to A2U C13A C73U A74G, the “polymerase ribozyme fitness (log ratio)” value is -3.05.

Take A2C U33A C97A U106A G120C U126A: the “polymerase ribozyme fitness (log ratio)” value is -6.8. The same measure for A2U G42A A83U C88U: -5.05. In the case of A2G C12U C56A C97U C124U it was 0.631. The same measure for A2C A105C: -4.23; for A2C G10A C13U G69C: -3.6; for A2C G39U: -2.12.

As to A2U A50U, the “polymerase ribozyme fitness (log ratio)” value is -3.14.

On to A2G A18C A91C, for which the “polymerase ribozyme fitness (log ratio)” value was -2.93. The same measure for A2U C15G: -4.66; for A2G G48U C80U U130C: -2.35. The same measure for A2G C20A C88U: -4.8; for A2G A18U C28G C124A U130C: -5.83; for A2G C13U A46U C86A G113U G120U C123G: -4.13. In the case of A2U C56A G120C it was -2.63.

With A2G G45U C82A, the “polymerase ribozyme fitness (log ratio)” value was -2.5.

As to A2G U7A C12A G39A C82A G122A, the “polymerase ribozyme fitness (log ratio)” value is -0.0716. For the variant A2G C70U U96A, the “polymerase ribozyme fitness (log ratio)” value is -1.87. The same measure for A2U C12U G110A U129C: -1.58; for A2U C13A C28U U112G: -6; for A2G G36C G48U G52U U59G C79G U112C: 0.109. In the case of A2C G63U A84G U131G it was -4.08; in that of A2G G107U, -5.37; in that of A2U C13U A50G G63A U112C, -1.43. The same measure for A2U C12U A27U G47A: -5.43; for A2G C22A: -4.99; for A2G G61A U116A: -4.16. For A2G U7A C70U A74C, the “polymerase ribozyme fitness (log ratio)” value is -0.954. A2U A37U C62U C72U U78A C124G: the “polymerase ribozyme fitness (log ratio)” value is -0.559. In the case of A2C C11A G17C C70U C123G, the “polymerase ribozyme fitness (log ratio)” value was -3.69. In the case of A2U A5C A26G U54A it was -4.4; in that of A2G A18U A29G C104G C124U U130G, -4.82. Take A2C C4U U9A C76U: the “polymerase ribozyme fitness (log ratio)” value is -0.884.

On to A2G G39U G57C A74U U112A C114G, for which the “polymerase ribozyme fitness (log ratio)” value is -2.17. In the case of A2G C20U it was -1.26; in that of A2C C72U, -2.38; in that of A2G C62U A83G, -1.82. In the case of A2G G122A U129C it was -1.77; in that of A2G G10U A43U C62G C79U, -3.6.

Consider A2G U9G G10U A27C C56G, for which the “polymerase ribozyme fitness (log ratio)” value was -3.86.

Turning to A2U C72U G110A, the “polymerase ribozyme fitness (log ratio)” value was -4.59. In the case of A2G G61A it was 0.0396; in that of A2C A50U, -2.44. Consider A2C C15U C104U, for which the “polymerase ribozyme fitness (log ratio)” value was -2.51. The same measure for A2G A68G U106G U125G: -5.29; for A2C U14G U54G U96G A100U G117A U126A U129G: -5.8; for A2C C20G G60A U112C: -4.64.

For the variant A2C C101A U129A, the “polymerase ribozyme fitness (log ratio)” value was -2.79. The same measure for A2U C82U C86G A121G: -0.832; for A2U C11U G45A U81C: -6.34; for A2C C49G U67G A84G G110U: -5.64. In the case of A2C C12G C115A U125A it was -2.05; in that of A2G U55G G71A A95U, -1.12; in that of A2U C4A U33G C49G G58C A121C, -5.98. In the case of A2G U9C C13U A18U C56G C72G A95G it was -4.64; in that of A2C C12G G69U, 0.12. Consider A2G G93C, for which the “polymerase ribozyme fitness (log ratio)” value is -1.48.
